The labels stand for the following.
B1: ML-IAP280 (QLCPICRAPV) (peptide)
peptide: QLCPICRAPV
notes: Synthetic peptide bought from Research Genetics, >80% purity
B2: ML-IAP245 (RLQEERTCKV) (peptide)
peptide: RLQEERTCKV
notes: as for B1
B3: ML-IAP54 (QILGQLRPL) (peptide)
peptide: QILGQLRPL
notes: as for B1
B4: ML-IAP34 (SLGSPVLGL) (peptide)
peptide: SLGSPVLGL
notes: as for B1
B5: ML-IAP154 (LLRSKGRDFV) (peptide)
peptide: LLRSKGRDFV
notes: as for B1
B6: ML-IAP230 (VLEPPGARDV) (peptide)
peptide: VLEPPGARDV
notes: as for B1
B7: ML-IAP98 (PLTAEVPPEL) (peptide)
peptide: PLTAEVPPEL
notes: as for B1
B8: ML-IAP90 (RLASFYDWPL) (peptide)
peptide: RLASFYDWPL
notes: as for B1
B9: ML-IAP99 (LTAEVPPEL) (peptide)
peptide: LTAEVPPEL
notes: as for B1
B10: ML-IAP83 (GMGSEELRL) (peptide)
peptide: GMGSEELRL
notes: as for B1

For this assay, the target named is HLA-A2 (human). The assay is described as follows: assembly assay, T2 cells, [35S]-labelled class I MHC, immunoprecipitation and IEF.
For the molecule B1, the “C50 (peptide concentration for half maximal binding)” value amounted to 20 µM. B2: the “C50 (peptide concentration for half maximal binding)” value is 1 µM. As for B3, the “C50 (peptide concentration for half maximal binding)” value stood at 1 µM. Turning to B4, the “C50 (peptide concentration for half maximal binding)” value came to 1 µM. As to B5, the “C50 (peptide concentration for half maximal binding)” value worked out at 10 µM. As for B6, the figure is above 100 µM; as for B7, above 100 µM; as for B8, 0.2 µM.

Turning to B9, the “C50 (peptide concentration for half maximal binding)” value was 0.9 µM. As for B10, the figure is 30 µM.

Values taken from US20070036811A1 (KRAEFTENS BEKAEMPELSE, published 2007).
